Measurements reported in publication PMC9482650, “Quantitative fragmentomics allow affinity mapping of interactomes” (Nature Communications, 2022).
Residue numbers refer to the chain shown, from its start. One block for each binder: values may come before it.

How the values were obtained:
Experiment in all cases: holdup assay
Set-up in all cases: key: below the threshold = too weak to quantify, mostly under pKd 3.1 to 4
MAGI1_1, Q96QZ7 = molecular target: MAGI1_1, Q96QZ7
GORASP1, Q9BQQ3 = molecular target: GORASP1, Q9BQQ3
Sequence of GORASP1, Q9BQQ3 (Q9BQQ3 1-208): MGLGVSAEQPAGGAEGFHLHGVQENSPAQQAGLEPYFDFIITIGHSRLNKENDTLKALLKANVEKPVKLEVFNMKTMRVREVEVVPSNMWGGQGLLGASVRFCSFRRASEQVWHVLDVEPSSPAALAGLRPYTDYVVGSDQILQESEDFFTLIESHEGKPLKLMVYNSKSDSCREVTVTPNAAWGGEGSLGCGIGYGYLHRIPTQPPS

PTPN3, P26045 = molecular target: PTPN3, P26045
Sequence of PTPN3, P26045 (P26045 505-587): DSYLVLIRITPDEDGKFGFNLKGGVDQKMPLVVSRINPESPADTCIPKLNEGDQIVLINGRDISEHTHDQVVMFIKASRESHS

DLG4_2, P78352 = molecular target: DLG4_2, P78352
Sequence of DLG4_2, P78352 (P78352 155-259): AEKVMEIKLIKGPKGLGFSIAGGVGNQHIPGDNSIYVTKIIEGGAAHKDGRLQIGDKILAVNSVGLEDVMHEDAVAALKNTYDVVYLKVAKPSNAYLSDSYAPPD

LIN7C, Q9NUP9 = molecular target: T1, LIN7C, Q9NUP9
T1 sequence (Q9NUP9 88-185, limits assumed, looked up): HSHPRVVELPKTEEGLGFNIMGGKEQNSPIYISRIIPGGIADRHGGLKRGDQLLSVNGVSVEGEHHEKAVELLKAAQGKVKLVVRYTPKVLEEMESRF

RADIL, Q96JH8 = molecular target: T2, RADIL, Q96JH8
T2 sequence (Q96JH8 971-1071, limits assumed, looked up): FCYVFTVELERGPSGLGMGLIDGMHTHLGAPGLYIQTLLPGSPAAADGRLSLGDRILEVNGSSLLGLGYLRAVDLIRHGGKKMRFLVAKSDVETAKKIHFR

MAGI1_2, Q96QZ7 = molecular target: MAGI1_2, Q96QZ7
Sequence of MAGI1_2, Q96QZ7 (Q96QZ7 456-580): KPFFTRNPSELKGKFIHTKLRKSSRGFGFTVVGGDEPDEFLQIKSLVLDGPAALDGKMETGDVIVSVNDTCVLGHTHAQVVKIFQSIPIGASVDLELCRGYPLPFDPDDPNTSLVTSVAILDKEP

SYNJ2BP, P57105 = molecular target: T3, SYNJ2BP, P57105
T3 sequence (P57105 8-110, limits assumed, looked up): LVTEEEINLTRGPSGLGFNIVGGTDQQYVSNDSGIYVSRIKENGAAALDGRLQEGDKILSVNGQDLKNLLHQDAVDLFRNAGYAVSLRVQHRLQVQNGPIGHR

Inadl_1, Q8NI35 = molecular target: Inadl_1, Q8NI35
Sequence of Inadl_1, Q8NI35 (Q8NI35 113-229): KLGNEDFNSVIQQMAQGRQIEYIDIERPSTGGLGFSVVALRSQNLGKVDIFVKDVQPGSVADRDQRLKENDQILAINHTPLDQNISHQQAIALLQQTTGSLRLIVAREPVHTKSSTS

MAGI2_5, Q86UL8 = molecular target: MAGI2_5, Q86UL8
Sequence of MAGI2_5, Q86UL8 (Q86UL8 915-1017): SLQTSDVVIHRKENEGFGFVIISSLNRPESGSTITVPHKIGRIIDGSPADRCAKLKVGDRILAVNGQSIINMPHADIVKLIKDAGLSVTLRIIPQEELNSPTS

LIN7A, O14910 = molecular target: T4, LIN7A, O14910
T4 sequence (O14910 103-200, limits assumed, looked up): T1 sequence (Q9NUP9 88-185, limits assumed, looked up) with E13D, I20V, I40V, D42E, Q77K, G78D, K79S, S96A

GRIP1_5, Q9Y3R0 = molecular target: T5, GRIP1_5, Q9Y3R0
T5 sequence (Q9Y3R0 568-668, limits assumed, looked up): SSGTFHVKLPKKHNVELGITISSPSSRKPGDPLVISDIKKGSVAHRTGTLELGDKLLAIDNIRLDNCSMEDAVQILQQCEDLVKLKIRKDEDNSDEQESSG

APBA1_2, Q02410 = molecular target: T6, APBA1_2, Q02410
T6 sequence (Q02410 742-832, limits assumed, looked up): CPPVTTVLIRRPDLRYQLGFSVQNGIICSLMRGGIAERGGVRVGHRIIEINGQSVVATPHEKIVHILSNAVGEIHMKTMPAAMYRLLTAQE

MAST1, Q9Y2H9 = molecular target: MAST1, Q9Y2H9
Sequence of MAST1, Q9Y2H9 (Q9Y2H9 962-1065): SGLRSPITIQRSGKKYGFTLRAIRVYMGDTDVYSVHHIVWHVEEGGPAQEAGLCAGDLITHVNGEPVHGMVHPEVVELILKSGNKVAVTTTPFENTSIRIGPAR

GRIP2_3, Q9C0E4 = molecular target: GRIP2_3, Q9C0E4
Sequence of GRIP2_3, Q9C0E4 (Q9C0E4 238-339): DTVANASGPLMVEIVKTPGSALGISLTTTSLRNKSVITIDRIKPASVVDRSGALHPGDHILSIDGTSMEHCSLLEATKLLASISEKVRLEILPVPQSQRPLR

SHANK1, Q9Y566 = molecular target: T7, SHANK1, Q9Y566
T7 sequence (Q9Y566 658-767, limits assumed, looked up): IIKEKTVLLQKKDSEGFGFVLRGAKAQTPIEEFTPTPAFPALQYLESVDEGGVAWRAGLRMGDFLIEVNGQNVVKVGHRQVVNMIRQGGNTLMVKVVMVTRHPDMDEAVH

PARD3_3, Q8TEW0 = molecular target: PARD3_3, Q8TEW0
Sequence of PARD3_3, Q8TEW0 (Q8TEW0 582-685): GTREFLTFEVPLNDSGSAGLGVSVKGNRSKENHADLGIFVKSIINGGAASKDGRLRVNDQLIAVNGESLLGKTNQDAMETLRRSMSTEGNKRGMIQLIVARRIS

TJP3_3, O95049 = molecular target: T8, TJP3_3, O95049
T8 sequence (O95049 375-456, limits assumed, looked up): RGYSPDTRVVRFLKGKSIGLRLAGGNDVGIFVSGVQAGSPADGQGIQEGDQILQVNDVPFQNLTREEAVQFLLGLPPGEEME

DLG1_1, Q12959 = molecular target: DLG1_1, Q12959
NHERF2_2, Q15599 = molecular target: NHERF2_2, Q15599
Sequence of NHERF2_2, Q15599 (Q15599 142-238): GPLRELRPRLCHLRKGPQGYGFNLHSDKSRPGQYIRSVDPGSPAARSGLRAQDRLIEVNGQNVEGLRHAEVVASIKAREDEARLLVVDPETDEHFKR

AHNAK1, Q09666 = molecular target: AHNAK1, Q09666
Sequence of AHNAK1, Q09666 (Q09666 4-100): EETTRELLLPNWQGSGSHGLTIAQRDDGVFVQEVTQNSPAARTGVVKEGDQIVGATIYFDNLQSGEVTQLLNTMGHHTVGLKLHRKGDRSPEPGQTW

Inadl_2, Q8NI35 = molecular target: Inadl_2, Q8NI35
Sequence of Inadl_2, Q8NI35 (Q8NI35 238-335): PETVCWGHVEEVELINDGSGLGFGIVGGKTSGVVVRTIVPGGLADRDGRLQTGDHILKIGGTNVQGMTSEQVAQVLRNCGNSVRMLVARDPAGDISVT

Inadl_9, Q8NI35 = molecular target: Inadl_9, Q8NI35
Sequence of Inadl_9, Q8NI35 (Q8NI35 1530-1615): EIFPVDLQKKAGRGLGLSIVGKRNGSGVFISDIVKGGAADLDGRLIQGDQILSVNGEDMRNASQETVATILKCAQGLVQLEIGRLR

HTRA2, O43464 = molecular target: HTRA2, O43464
Sequence of HTRA2, O43464 (O43464 355-458): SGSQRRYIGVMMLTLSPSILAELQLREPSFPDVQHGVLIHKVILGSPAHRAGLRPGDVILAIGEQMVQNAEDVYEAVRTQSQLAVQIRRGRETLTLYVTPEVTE

DLG3_1, Q92796 = molecular target: T9, DLG3_1, Q92796
T9 sequence (Q92796 125-227, limits assumed, looked up): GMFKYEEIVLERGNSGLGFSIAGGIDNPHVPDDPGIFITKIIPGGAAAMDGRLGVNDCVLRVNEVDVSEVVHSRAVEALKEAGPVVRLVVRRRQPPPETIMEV

PARD3B_1, Q8TEW8 = molecular target: T10, PARD3B_1, Q8TEW8
T10 sequence (Q8TEW8 196-299, limits assumed, looked up): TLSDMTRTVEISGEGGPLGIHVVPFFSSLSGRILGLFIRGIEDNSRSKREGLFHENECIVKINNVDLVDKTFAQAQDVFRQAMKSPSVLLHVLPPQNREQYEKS

DLG2_2, Q15700 = molecular target: DLG2_2, Q15700
Sequence of DLG2_2, Q15700 (Q15700 189-283): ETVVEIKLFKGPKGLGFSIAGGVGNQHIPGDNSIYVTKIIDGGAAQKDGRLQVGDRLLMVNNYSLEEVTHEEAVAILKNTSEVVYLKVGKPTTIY

[1] = plain residues with an end cap or a label only (N-terminal biotin on a linker: ado-ado)
[2] = plain residues with an end cap or a label only (N-terminal biotin on a linker: ahx)

Sequence of MAGI1_1, Q96QZ7 (Q96QZ7 1-106): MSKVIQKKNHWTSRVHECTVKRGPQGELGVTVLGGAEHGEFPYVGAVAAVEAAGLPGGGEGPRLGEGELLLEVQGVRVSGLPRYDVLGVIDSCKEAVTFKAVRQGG

pKd (MAGI1_1, Q96QZ7; [1]): below the threshold
pKd (GORASP1, Q9BQQ3; [1]): below the threshold
pKd (PTPN3, P26045; [1]): 4.76
pKd (DLG4_2, P78352; [1]): 4.62
pKd (LIN7C, Q9NUP9; [1]): 4.26
pKd (RADIL, Q96JH8; [1]): 3.74
pKd (MAGI1_2, Q96QZ7; [1]): 3.95
pKd (SYNJ2BP, P57105; [1]): 5.23
pKd (Inadl_1, Q8NI35; [1]): below the threshold
pKd (MAGI2_5, Q86UL8; [1]): 4.09
pKd (LIN7A, O14910; [1]): below the threshold
pKd (GRIP1_5, Q9Y3R0; [1]): below the threshold
pKd (APBA1_2, Q02410; [1]): 4.51
pKd (MAST1, Q9Y2H9; [1]): 4.74
pKd (GRIP2_3, Q9C0E4; [1]): below the threshold
pKd (SHANK1, Q9Y566; [1]): 3.49
pKd (PARD3_3, Q8TEW0; [1]): below the threshold
pKd (TJP3_3, O95049; [1]): 3.48
pKd (DLG1_1, Q12959; [1]): 4.4
pKd (NHERF2_2, Q15599; [1]): 3.48
pKd (AHNAK1, Q09666; [1]): below the threshold
pKd (Inadl_2, Q8NI35; [1]): below the threshold
pKd (Inadl_9, Q8NI35; [1]): 4.03
pKd (HTRA2, O43464; [1]): below the threshold
pKd (DLG3_1, Q92796; [1]): 4.03
pKd (PARD3B_1, Q8TEW8; [1]): below the threshold
pKd (DLG2_2, Q15700; [1]): 4.45
Binder: VLYPREGTEV [FOXI1, Q12951]

pKd (MAGI1_1, Q96QZ7; [2]): below the threshold
pKd (GORASP1, Q9BQQ3; [2]): below the threshold
pKd (PTPN3, P26045; [2]): 4.25
pKd (DLG4_2, P78352; [2]): below the threshold
pKd (LIN7C, Q9NUP9; [2]): below the threshold
pKd (RADIL, Q96JH8; [2]): below the threshold
pKd (MAGI1_2, Q96QZ7; [2]): below the threshold
pKd (SYNJ2BP, P57105; [2]): below the threshold
pKd (Inadl_1, Q8NI35; [2]): below the threshold
pKd (MAGI2_5, Q86UL8; [2]): below the threshold
pKd (LIN7A, O14910; [2]): below the threshold
pKd (GRIP1_5, Q9Y3R0; [2]): below the threshold
pKd (APBA1_2, Q02410; [2]): below the threshold
pKd (MAST1, Q9Y2H9; [2]): below the threshold
pKd (GRIP2_3, Q9C0E4; [2]): below the threshold
pKd (SHANK1, Q9Y566; [2]): below the threshold
pKd (PARD3_3, Q8TEW0; [2]): below the threshold
pKd (TJP3_3, O95049; [2]): below the threshold
pKd (DLG1_1, Q12959; [2]): below the threshold
pKd (NHERF2_2, Q15599; [2]): 3.55
pKd (AHNAK1, Q09666; [2]): below the threshold
pKd (Inadl_2, Q8NI35; [2]): below the threshold
pKd (Inadl_9, Q8NI35; [2]): below the threshold
pKd (HTRA2, O43464; [2]): below the threshold
pKd (DLG3_1, Q92796; [2]): below the threshold
pKd (PARD3B_1, Q8TEW8; [2]): below the threshold
pKd (DLG2_2, Q15700; [2]): below the threshold
Binder: EKQAKGDTEF [CACYBP, Q9HB71]

Second part, the binder before the results:

Binder: RDPPAEWTRV [PTPN18, Q99952]
pKd (MAGI1_1, Q96QZ7; [1]): below the threshold
pKd (GORASP1, Q9BQQ3; [1]): 4.07
pKd (PTPN3, P26045; [1]): below the threshold
pKd (DLG4_2, P78352; [1]): 4.26
pKd (LIN7C, Q9NUP9; [1]): below the threshold
pKd (RADIL, Q96JH8; [1]): 4
pKd (MAGI1_2, Q96QZ7; [1]): below the threshold
pKd (SYNJ2BP, P57105; [1]): below the threshold
pKd (Inadl_1, Q8NI35; [1]): below the threshold
pKd (MAGI2_5, Q86UL8; [1]): 4.72
pKd (LIN7A, O14910; [1]): 3.58
pKd (GRIP1_5, Q9Y3R0; [1]): below the threshold
pKd (APBA1_2, Q02410; [1]): 4.25
pKd (MAST1, Q9Y2H9; [1]): 4.97
pKd (GRIP2_3, Q9C0E4; [1]): below the threshold
pKd (SHANK1, Q9Y566; [1]): 5.05
pKd (PARD3_3, Q8TEW0; [1]): 3.54
pKd (TJP3_3, O95049; [1]): below the threshold
pKd (DLG1_1, Q12959; [1]): 4.09
pKd (NHERF2_2, Q15599; [1]): 4.45
pKd (AHNAK1, Q09666; [1]): below the threshold
pKd (Inadl_2, Q8NI35; [1]): below the threshold
pKd (Inadl_9, Q8NI35; [1]): 3.66
pKd (HTRA2, O43464; [1]): below the threshold
pKd (DLG3_1, Q92796; [1]): 3.61
pKd (PARD3B_1, Q8TEW8; [1]): 4.03
pKd (DLG2_2, Q15700; [1]): 4.01

Binder: SLNANEVEWF [RNF130, Q86XS8]
pKd (MAGI1_1, Q96QZ7; [1]): below the threshold
pKd (GORASP1, Q9BQQ3; [1]): 4.08
pKd (PTPN3, P26045; [1]): 4.36
pKd (DLG4_2, P78352; [1]): 3.51
pKd (LIN7C, Q9NUP9; [1]): 3.96
pKd (RADIL, Q96JH8; [1]): 4.59
pKd (MAGI1_2, Q96QZ7; [1]): below the threshold
pKd (SYNJ2BP, P57105; [1]): below the threshold
pKd (Inadl_1, Q8NI35; [1]): 3.52
pKd (MAGI2_5, Q86UL8; [1]): 3.51
pKd (LIN7A, O14910; [1]): below the threshold
pKd (GRIP1_5, Q9Y3R0; [1]): below the threshold
pKd (APBA1_2, Q02410; [1]): 3.79
pKd (MAST1, Q9Y2H9; [1]): 3.96
pKd (GRIP2_3, Q9C0E4; [1]): below the threshold
pKd (SHANK1, Q9Y566; [1]): 3.82
pKd (PARD3_3, Q8TEW0; [1]): 5.28
pKd (TJP3_3, O95049; [1]): 3.6
pKd (DLG1_1, Q12959; [1]): below the threshold
pKd (NHERF2_2, Q15599; [1]): 4.56
pKd (AHNAK1, Q09666; [1]): below the threshold
pKd (Inadl_2, Q8NI35; [1]): 4.09
pKd (Inadl_9, Q8NI35; [1]): below the threshold
pKd (HTRA2, O43464; [1]): 3.51
pKd (DLG3_1, Q92796; [1]): below the threshold
pKd (PARD3B_1, Q8TEW8; [1]): 4.35
pKd (DLG2_2, Q15700; [1]): below the threshold

Binder: MHIQEKGFHV [EPHA6, Q9UF33]
pKd (MAGI1_1, Q96QZ7; [1]): below the threshold
pKd (GORASP1, Q9BQQ3; [1]): below the threshold
pKd (PTPN3, P26045; [1]): below the threshold
pKd (DLG4_2, P78352; [1]): below the threshold
pKd (LIN7C, Q9NUP9; [1]): below the threshold
pKd (RADIL, Q96JH8; [1]): 3.98
pKd (MAGI1_2, Q96QZ7; [1]): below the threshold
pKd (SYNJ2BP, P57105; [1]): below the threshold
pKd (Inadl_1, Q8NI35; [1]): below the threshold
pKd (MAGI2_5, Q86UL8; [1]): below the threshold
pKd (LIN7A, O14910; [1]): below the threshold
pKd (GRIP1_5, Q9Y3R0; [1]): below the threshold
pKd (APBA1_2, Q02410; [1]): below the threshold
pKd (MAST1, Q9Y2H9; [1]): 3.69
pKd (GRIP2_3, Q9C0E4; [1]): below the threshold
pKd (SHANK1, Q9Y566; [1]): below the threshold
pKd (PARD3_3, Q8TEW0; [1]): below the threshold
pKd (TJP3_3, O95049; [1]): below the threshold
pKd (DLG1_1, Q12959; [1]): below the threshold
pKd (NHERF2_2, Q15599; [1]): below the threshold
pKd (AHNAK1, Q09666; [1]): below the threshold
pKd (Inadl_2, Q8NI35; [1]): below the threshold
pKd (Inadl_9, Q8NI35; [1]): below the threshold
pKd (HTRA2, O43464; [1]): below the threshold
pKd (DLG3_1, Q92796; [1]): below the threshold
pKd (PARD3B_1, Q8TEW8; [1]): 4.89
pKd (DLG2_2, Q15700; [1]): below the threshold
